# Patent US20170115293A1
# Target: FAS (CD95, APO-1) death receptor (human) (UniProt P25445)
# Test: cell-based or functional assay
# Sequence of UniProt P25445 (P25445 26-335): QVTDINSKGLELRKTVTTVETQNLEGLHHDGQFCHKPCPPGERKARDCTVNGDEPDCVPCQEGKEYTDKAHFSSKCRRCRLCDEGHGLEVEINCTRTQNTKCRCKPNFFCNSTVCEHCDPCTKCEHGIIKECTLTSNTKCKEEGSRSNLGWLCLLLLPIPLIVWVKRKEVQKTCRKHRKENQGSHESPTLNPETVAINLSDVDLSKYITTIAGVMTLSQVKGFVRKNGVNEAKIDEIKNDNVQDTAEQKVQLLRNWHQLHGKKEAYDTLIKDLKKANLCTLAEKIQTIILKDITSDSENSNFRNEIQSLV
substance,measurement,value
"CH11, a FAS agonistic (stimulating) antibody (monoclonal mouse antibody, cat. no. 05-201; EMD Millipore)",clonogenic cell survival of SUM159: radiation dose to achieve a surviving fraction of 0.1,3.25 Gy
same,clonogenic cell survival of SUM159 after irradiation: dose-modifying factor,2.5
